# Test results from patent publication US10472401B2, “Peptides and combination of peptides for use in immunotherapy against ovarian cancer and other cancers” (immatics biotechnologies GmbH, priority 2015, dated 2019).
# Target: HLA-A*02:01 (Homo sapiens, UniProt P04439, D140Y/D185E/D98H/E176V/E277Q/G131W/G231S/I119V/I121R/I166T/I218V/L300P/L318F/N151K/N90K/P208A/P217A/Q86G/Q94H/R138H/R169H/T345S)
# Test: MHC binding assay (UV-ligand exchange, ELISA of stabilized MHC complexes)
# Settings: MHC class I binding score; binding to HLA-A*02:01 ranged by peptide exchange yield (UV-ligand exchange, ELISA)
# Procedure, shortened: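 Binding scored as exchange yield, detected via β2m of stabilized complexes in an HRP/TMB ELISA read at 450 nm after streptavidin capture of 100-fold diluted monomers for 1 h at 37 °C. Complexes came from UV irradiation cleaving a photolabile peptide, exchanged for the candidate.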
row,Substance,Peptide exchange
1,466 (VLIANLEKL; listed as Homo sapiens) [compound 466],″++++″ (≥75% = ++++)
2,467 (FLAKDFNFL; listed as Homo sapiens) [compound 467],″+++″ (≥50% = +++)
3,474 (YLDPALELGPRNV; listed as Homo sapiens) [compound 474],″+++″ (≥50% = +++)
4,476 (ALMERTGYSMV; listed as Homo sapiens) [compound 476],″+++″ (≥50% = +++)
5,477 (ALLPASGQIAL; listed as Homo sapiens) [compound 477],″+++″ (≥50% = +++)
6,480 (ALLEDSCHYL; listed as Homo sapiens) [compound 480],″+++″ (≥50% = +++)
7,481 (GLIEDYEALL; listed as Homo sapiens) [compound 481],″+++″ (≥50% = +++)
8,484 (SLIEKVTQL; listed as Homo sapiens) [compound 484],″+++″ (≥50% = +++)
9,486 (AVMESIQGV; listed as Homo sapiens) [compound 486],″+++″ (≥50% = +++)
10,487 (LLINSVFHV; listed as Homo sapiens) [compound 487],″+++″ (≥50% = +++)
11,490 (FLLQHVQEL; listed as Homo sapiens) [compound 490],″+++″ (≥50% = +++)
12,491 (GLNDRSDAV; listed as Homo sapiens) [compound 491],″++″ (≥20% = ++)
13,492 (SLFDGFADGLGV; listed as Homo sapiens) [compound 492],″+++″ (≥50% = +++)
14,493 (GLLGEKTQDLIGV; listed as Homo sapiens) [compound 493],″+++″ (≥50% = +++)
15,495 (FIFSEKPVFV; listed as Homo sapiens) [compound 495],″+++″ (≥50% = +++)
16,496 (FLVEKQPPQV; listed as Homo sapiens) [compound 496],″+++″ (≥50% = +++)
17,497 (GLLEKLTAI; listed as Homo sapiens) [compound 497],″+++″ (≥50% = +++)
18,501 (LLDPNVKSIFV; listed as Homo sapiens) [compound 501],″+++″ (≥50% = +++)
19,503 (SLNHFTHSV; listed as Homo sapiens) [compound 503],″+++″ (≥50% = +++)
20,504 (GLSDGNPSL; listed as Homo sapiens) [compound 504],″++″ (≥20% = ++)
21,505 (SLAPGDVVRQV; listed as Homo sapiens) [compound 505],″++″ (≥20% = ++)
22,514 (ILVDWLVQV; listed as Homo sapiens) [compound 514],″+++″ (≥50% = +++)
23,515 (LLQELVLFL; listed as Homo sapiens) [compound 515],″+++″ (≥50% = +++)

row,Substance,Peptide exchange
1,516 (AVGPASILKEV; listed as Homo sapiens) [compound 516],″++″ (≥20% = ++)
2,517 (LLMPIPEGLTL; listed as Homo sapiens) [compound 517],″+++″ (≥50% = +++)
3,518 (KLNAEVACV; listed as Homo sapiens) [compound 518],″+++″ (≥50% = +++)
4,520 (LAVHPSGVAL; listed as Homo sapiens) [compound 520],″+″ (≥10% = +)
5,521 (MLLTKLPTI; listed as Homo sapiens) [compound 521],″+++″ (≥50% = +++)
6,522 (TLWYRSPEV; listed as Homo sapiens) [compound 522],″++″ (≥20% = ++)
7,523 (YQIPRTFTL; listed as Homo sapiens) [compound 523],″++″ (≥20% = ++)
8,524 (ALIENLTHQI; listed as Homo sapiens) [compound 524],″++″ (≥20% = ++)
9,525 (VLLEAGEGLVTI; listed as Homo sapiens) [compound 525],″+++″ (≥50% = +++)
10,527 (FLLEPGNLEV; listed as Homo sapiens) [compound 527],″++++″ (≥75% = ++++)
11,528 (SVAEGRALMSV; listed as Homo sapiens) [compound 528],″+++″ (≥50% = +++)
12,529 (LLADELITV; listed as Homo sapiens) [compound 529],″+++″ (≥50% = +++)
13,537 (TLAPGEVLRSV; listed as Homo sapiens) [compound 537],″+++″ (≥50% = +++)
14,538 (LLLAHIIAL; listed as Homo sapiens) [compound 538],″++″ (≥20% = ++)
15,542 (RVWDISTVSSV; listed as Homo sapiens) [compound 542],″+++″ (≥50% = +++)
16,543 (GLLPTPITQQASL; listed as Homo sapiens) [compound 543],″+++″ (≥50% = +++)
17,545 (LLADLLHNV; listed as Homo sapiens) [compound 545],″+++″ (≥50% = +++)
18,546 (VMIAGKVAVV; listed as Homo sapiens) [compound 546],″+++″ (≥50% = +++)
19,547 (TLDITPHTV; listed as Homo sapiens) [compound 547],″+++″ (≥50% = +++)
20,549 (AMLENASDIKL; listed as Homo sapiens) [compound 549],″+++″ (≥50% = +++)
21,550 (FLYDEIEAEVNL; listed as Homo sapiens) [compound 550],″+++″ (≥50% = +++)
22,551 (KLYESLLPFA; listed as Homo sapiens) [compound 551],″+++″ (≥50% = +++)
23,552 (GLLDLPFRVGV; listed as Homo sapiens) [compound 552],″++++″ (≥75% = ++++)

# Further lines, results first:
row,Peptide exchange,Substance
1,″+++″ (≥50% = +++),464 (ALNDCIYSV; listed as Homo sapiens) [compound 464]
2,″+++″ (≥50% = +++),465 (QLCDLNAEL; listed as Homo sapiens) [compound 465]
3,″+++″ (≥50% = +++),468 (YLRSVGDGETV; listed as Homo sapiens) [compound 468]
4,″+++″ (≥50% = +++),469 (YLASDEITTV; listed as Homo sapiens) [compound 469]
5,″+++″ (≥50% = +++),471 (YLYNNMIAKI; listed as Homo sapiens) [compound 471]
6,″+++″ (≥50% = +++),472 (KLLEVSDDPQV; listed as Homo sapiens) [compound 472]
7,″+++″ (≥50% = +++),473 (AMATESILHFA; listed as Homo sapiens) [compound 473]
8,″+++″ (≥50% = +++),475 (LLLNEEALAQI; listed as Homo sapiens) [compound 475]
9,″+++″ (≥50% = +++),478 (YLLHEKLNL; listed as Homo sapiens) [compound 478]
10,″+++″ (≥50% = +++),479 (SLFGNSGILENV; listed as Homo sapiens) [compound 479]
11,″+++″ (≥50% = +++),485 (NVPDSFNEV; listed as Homo sapiens) [compound 485]
12,″+++″ (≥50% = +++),488 (FLAEDPKVTL; listed as Homo sapiens) [compound 488]
13,″++″ (≥20% = ++),494 (ALQPEPIKV; listed as Homo sapiens) [compound 494]
14,″+++″ (≥50% = +++),498 (KLWTGGLDNTV; listed as Homo sapiens) [compound 498]
15,″+++″ (≥50% = +++),500 (SLMEDQVLQL; listed as Homo sapiens) [compound 500]
16,″+++″ (≥50% = +++),502 (RLLAQVPGL; listed as Homo sapiens) [compound 502]

row,Peptide exchange,Substance
1,″+++″ (≥50% = +++),506 (KLLGKVETA; listed as Homo sapiens) [compound 506]
2,″+++″ (≥50% = +++),507 (KLIDDQDISISL; listed as Homo sapiens) [compound 507]
3,″+++″ (≥50% = +++),508 (ILAQEQLVVGV; listed as Homo sapiens) [compound 508]
4,″+++″ (≥50% = +++),509 (FLFDTKPLIV; listed as Homo sapiens) [compound 509]
5,″++″ (≥20% = ++),510 (KLYSVVSQL; listed as Homo sapiens) [compound 510]
6,″+++″ (≥50% = +++),512 (SLSEIVPCL; listed as Homo sapiens) [compound 512]
7,″++″ (≥20% = ++),513 (SLWPSPEQL; listed as Homo sapiens) [compound 513]
8,″+++″ (≥50% = +++),519 (GLLHLTLLL; listed as Homo sapiens) [compound 519]
9,″++″ (≥20% = ++),526 (RLAEVGQYEQV; listed as Homo sapiens) [compound 526]
10,″+++″ (≥50% = +++),530 (VMYADIGGMDI; listed as Homo sapiens) [compound 530]
11,″+++″ (≥50% = +++),531 (YTLPIASSIRL; listed as Homo sapiens) [compound 531]
12,″+++″ (≥50% = +++),539 (ALFDAQAQV; listed as Homo sapiens) [compound 539]
13,″+++″ (≥50% = +++),541 (SMLEPVPEL; listed as Homo sapiens) [compound 541]
14,″+++″ (≥50% = +++),544 (LLWDVPAPSL; listed as Homo sapiens) [compound 544]
15,″++″ (≥20% = ++),548 (ALWENPESGEL; listed as Homo sapiens) [compound 548]
